Measured values reported in patent publication US20250262210A1 (TRUSTEES OF COLUMBIA UNIVERSITY IN THE CITY OF NEW YORK, published 2025).

Legend:
ELP1 = biological target: T1, ELP1 (human, UniProt O95163 1-1332); experiment: IP/MS, LZTR1 R810W-FLAG, U87
T1 sequence (looked up): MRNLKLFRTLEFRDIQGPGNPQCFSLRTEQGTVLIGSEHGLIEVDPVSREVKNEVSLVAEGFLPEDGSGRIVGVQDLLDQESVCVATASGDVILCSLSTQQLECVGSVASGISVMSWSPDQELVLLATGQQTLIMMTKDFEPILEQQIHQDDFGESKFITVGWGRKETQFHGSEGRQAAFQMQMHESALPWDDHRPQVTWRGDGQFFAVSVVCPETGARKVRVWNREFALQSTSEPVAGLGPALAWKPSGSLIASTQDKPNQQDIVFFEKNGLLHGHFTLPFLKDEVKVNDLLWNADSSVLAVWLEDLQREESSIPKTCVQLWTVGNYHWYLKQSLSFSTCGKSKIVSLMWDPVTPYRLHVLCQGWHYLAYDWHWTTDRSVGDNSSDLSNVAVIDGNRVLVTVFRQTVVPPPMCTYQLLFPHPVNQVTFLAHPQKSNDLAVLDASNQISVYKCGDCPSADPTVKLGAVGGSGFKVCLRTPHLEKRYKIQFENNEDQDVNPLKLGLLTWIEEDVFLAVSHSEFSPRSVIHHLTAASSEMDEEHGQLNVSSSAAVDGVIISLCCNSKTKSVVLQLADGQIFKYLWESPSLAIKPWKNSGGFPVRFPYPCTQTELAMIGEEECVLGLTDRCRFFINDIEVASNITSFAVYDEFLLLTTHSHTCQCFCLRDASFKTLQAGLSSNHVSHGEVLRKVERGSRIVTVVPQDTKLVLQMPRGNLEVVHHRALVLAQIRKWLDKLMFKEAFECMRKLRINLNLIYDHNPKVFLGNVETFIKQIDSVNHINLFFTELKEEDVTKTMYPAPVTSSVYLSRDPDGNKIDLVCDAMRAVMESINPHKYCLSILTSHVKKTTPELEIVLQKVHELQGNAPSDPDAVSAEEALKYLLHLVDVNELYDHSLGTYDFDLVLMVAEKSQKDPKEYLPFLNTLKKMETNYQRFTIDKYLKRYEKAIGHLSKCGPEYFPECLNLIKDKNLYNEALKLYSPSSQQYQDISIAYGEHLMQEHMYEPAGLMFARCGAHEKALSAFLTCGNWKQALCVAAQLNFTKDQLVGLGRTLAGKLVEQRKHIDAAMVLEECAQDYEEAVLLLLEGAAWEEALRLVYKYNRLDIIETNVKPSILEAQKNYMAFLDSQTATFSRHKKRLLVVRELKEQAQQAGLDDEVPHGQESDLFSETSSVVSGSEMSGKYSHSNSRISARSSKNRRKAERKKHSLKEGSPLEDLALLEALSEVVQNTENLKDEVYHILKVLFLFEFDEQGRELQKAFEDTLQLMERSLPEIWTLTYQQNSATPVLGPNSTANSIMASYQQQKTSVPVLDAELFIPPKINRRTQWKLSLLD
Procedure, shortened: (§1)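 Read-out: spectral counts from LC-MS/MS (Orbitrap Fusion) after MaxQuant identification. Variable modifications were Met oxidation, protein N-terminal acetylation and N/Q deamidation.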

MOCOS = biological target: T2, MOCOS (human, UniProt Q96EN8 1-888); experiment: IP/MS, LZTR1 R810W-FLAG, U87
T2 sequence (looked up): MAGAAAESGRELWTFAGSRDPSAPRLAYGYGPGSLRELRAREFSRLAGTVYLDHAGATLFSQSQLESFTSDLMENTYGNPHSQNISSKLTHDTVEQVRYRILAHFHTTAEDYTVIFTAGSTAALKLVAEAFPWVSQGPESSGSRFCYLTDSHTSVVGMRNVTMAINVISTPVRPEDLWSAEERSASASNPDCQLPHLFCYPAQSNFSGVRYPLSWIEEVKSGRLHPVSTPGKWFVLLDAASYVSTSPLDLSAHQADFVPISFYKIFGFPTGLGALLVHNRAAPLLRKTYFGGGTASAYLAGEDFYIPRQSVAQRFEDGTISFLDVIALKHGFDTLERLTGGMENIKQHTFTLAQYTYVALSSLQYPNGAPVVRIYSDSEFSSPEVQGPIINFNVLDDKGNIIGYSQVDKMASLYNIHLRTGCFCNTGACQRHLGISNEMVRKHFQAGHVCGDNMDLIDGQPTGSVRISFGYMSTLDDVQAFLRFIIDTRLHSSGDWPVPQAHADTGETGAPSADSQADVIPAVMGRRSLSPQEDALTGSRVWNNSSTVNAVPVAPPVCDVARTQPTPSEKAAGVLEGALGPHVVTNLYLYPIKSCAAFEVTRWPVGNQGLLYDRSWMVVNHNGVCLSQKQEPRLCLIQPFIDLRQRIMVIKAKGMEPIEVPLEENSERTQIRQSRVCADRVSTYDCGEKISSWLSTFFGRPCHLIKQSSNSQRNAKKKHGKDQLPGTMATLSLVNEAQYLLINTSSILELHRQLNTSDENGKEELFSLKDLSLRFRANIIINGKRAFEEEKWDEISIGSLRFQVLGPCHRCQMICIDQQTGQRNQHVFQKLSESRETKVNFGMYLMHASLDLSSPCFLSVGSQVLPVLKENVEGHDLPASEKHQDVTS
Procedure, shortened: as §1

B1: LZTR1 R810W-FLAG (other, human, UniProt Q8N653 1-840, looked up)
chain: MAGPGSTGGQIGAAALAGGARSKVAPSVDFDHSCSDSVEYLTLNFGPFETVHRWRRLPPCDEFVGARRSKHTVVAYKDAIYVFGGDNGKTMLNDLLRFDVKDCSWCRAFTTGTPPAPRYHHSAVVYGSSMFVFGGYTGDIYSNSNLKNKNDLFEYKFATGQWTEWKIEGRLPVARSAHGATVYSDKLWIFAGYDGNARLNDMWTIGLQDRELTCWEEVAQSGEIPPSCCNFPVAVCRDKMFVFSGQSGAKITNNLFQFEFKDKTWTRIPTEHLLRGSPPPPQRRYGHTMVAFDRHLYVFGGAADNTLPNELHCYDVDFQTWEVVQPSSDSEVGGAEVPERACASEEVPTLTYEERVGFKKSRDVFGLDFGTTSAKQPTQPASELPSGRLFHAAAVISDAMYIFGGTVDNNIRSGEMYRFQFSCYPKCTLHEDYGRLWESRQFCDVEFVLGEKEECVQGHVAIVTARSRWLRRKITQARERLAQKLEQEAAPVPREAPGVAAGGARPPLLHVAIREAEARPFEVLMQFLYTDKIKYPRKGHVEDVLLIMDVYKLALSFQLCRLEQLCRQYIEASVDLQNVLVVCESAARLQLSQLKEHCLNFVVKESHFNQVIMMKEFERLSSPLIVEIVRRKQQPPPRTPLDQPVDIGTSLIQDMKAYLEGAGAEFCDITLLLDGHPRPAHKAILAARSSYFEAMFRSFMPEDGQVNISIGEMVPSRQAFESMLRYIYYGEVNMPPEDSLYLFAAPYYYGFYNNRLQAYCKQNLEMNVTVQNVLQILEAADKTQALDMKRHCLHIIVHQFTKVSKLPTLWSLSQQLLLDIIDSLASHISDKQCAELGADI
notes: Stably expressed in U87 cells by lentivirus; also called LZTR1-FLAG-R810W; LZTR1 RW; not shown: FLAG tag
binding result (ELP1): binds
binding result (MOCOS): binds
